Assay results published in the nanobody polyreactivity screen of Harvey et al. (2022).

Test: yeast display, Sf9 membrane polyspecificity reagent, FACS + sequencing; frameworks hold sequencing errors
Method in brief: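 Genes from sorted yeast were amplified by colony PCR, read by MiSeq 2 × 250 sequencing and filtered on CDR length. These cells carried a synthetic nanobody library in Saccharomyces cerevisiae BJ5465 and were sorted by FACS into low and high (top ~1%) gates on anti-HA and streptavidin fluorescence. Polyreactivity is labelled according to the gate of origin.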

With “QVQLVESGGGLVQAGCSLRLICAAAGIIFSSYAMGWYRQAPGKERELVAAISWNGGRTYYADSVKGRFTISRDNAKNTVYLQMNSLKPEDTAVYYCAAPHSVPDLHSGDYWGQGTQVTVSS” the “polyreactivity (PSR sort gate)” value was “low polyreactivity”.
For “QVQLVESGGGLVQAGGSLRLSCAASGSTFGGNGMGWYRQAPGKEREFVATITWRSGSTYYADSVKGRFTISRDNAKNSVYLQMNSLKPEDSAVYYCAKYTSSRRNTWYYYWGQGTQVTVSS”, the “polyreactivity (PSR sort gate)” value was “high polyreactivity”.
For “QVQLVESGGGLVQAGGSLRLSCAASGFIFLAYAMGWYRQAPGKERELVAAISSGSSTSYADSVKGRFTISRDNAKNTVYLQMNSLKPEDTAVYYCNAVPSFANLTWESYDYWGQGTQVTVSS”, the “polyreactivity (PSR sort gate)” value was “low polyreactivity”.
With “QVQLVESGGGLVQAGGSLRLSCAASGFIFYDNAMGWYRQAPGKERELVAAITSGGSTYYADSVKGRFTISRDNAKNTVYLQMNSLKPEDTAVYYCATRPWGSWYYYWGQGTQVTVSS” the “polyreactivity (PSR sort gate)” value was “high polyreactivity”.
With “QVELVESGGGLVQAGGSLRLSCAASGFTFRYYAMGWYRQAPGKERELVAAINASGGRTYYADSVKGRFTISRDNAKNTVYLQMNSLKPEDTAVYYCAARSIRQHYGMDYWGQGTQVTVSS” the “polyreactivity (PSR sort gate)” value was “high polyreactivity”.
With “QVQLVESGGGLVQAGGSLRLSCAASGSILHVYAMGWYRQAPGKERELVAAISKSGTRTYYAVSVKGRFTISRDNAKNTVYLQMNRLKPEDTAVYYCAAERSQYVYSTDPYGYDYWGQGTQVTVSS” the “polyreactivity (PSR sort gate)” value was “high polyreactivity”.
For “QVQLVESGGGLVQAGGSLRLSCAASGITFYRYAMGWYRQSPGKETQLVAAIRRAGSTYYADSVKGRFTISRDNAKNTVYLQMNSLKPEDTAVYYCAAPYRLEPLSTHGSWGQGTQVTVSS”, the “polyreactivity (PSR sort gate)” value was “high polyreactivity”.
With “QVQLVESGGGLVQAGGSLRLSCAASGFTFGGNDMGWYSQAPGKERELVAAIRSSGDTTYYADSVKGRFTISRDNAKNTVYLQMNSLKPEDTAVSYCAAYSHHQFSRSEYYYWGKGTQVTVSS” the “polyreactivity (PSR sort gate)” value was “low polyreactivity”.
With “QVQHVESRGGLVQSGGSLRLSCAASGSIFSYYDLGWYRQAPGKERELVASISSGGSTYYADSVKGRFTISRDNAKNTVYLQMNSLKPEDTAVYYCAAVSRWLYWEDDYWGQGTQVTVSS” the “polyreactivity (PSR sort gate)” value was “low polyreactivity”.
In the case of “QVQLVESVGGLVQAGGSLRLSCAASGSTFVDYAMGWYRQAPGKERELVAAINSDGGGTYYADSVKGRFTISRDNAKNTVYLQMNSLKPEDTAVYYCNVEYVDYYAQRYGYDYWGQGTQVTLSS”, the “polyreactivity (PSR sort gate)” value is reported as “low polyreactivity”.
In the case of “QVQLVESGGGLVQAGGSLRLSCAASGSIFQFYTMGWYRQAPGKERELVAAISSTGSTNYADSVKGRFTISRDNAKNTVYLQMNSLKPEDTAVYYCAAVGTYLAGYQFDYWGQGTQVTVSS”, the “polyreactivity (PSR sort gate)” value is reported as “low polyreactivity”.
For “QVQLVESGGGLVQAGGSLRLICAASGVTFWSDAMGWYRQAPGKEREFVAAITTSAGRTNYADSVKGRFTISRDNAQNTVYLKMNSLKPEDTAVYYCAARSAYTGLGSGFDYWGQGTQVSVSS”, the “polyreactivity (PSR sort gate)” value was “low polyreactivity”.
With “QVQLVESGRGLVQAGVSLRLSCAASGFIFYDYAMGWYRPAPGTERELVAAISSGGSTNYADSVKGLFTISRDNAKNTVYLQMNSLKPEDTAVYYCAADVRSYATWKRDYDYWGQGTQVTVSS” the “polyreactivity (PSR sort gate)” value was “low polyreactivity”.
For “QVQLVESGGGLVQAGGSLRLSCAASGFTFCRNTMGWYRQAPGKEREFVAAIDWSGGSTTYADSVKGRFTISRDNAKNTVYLQMNSLKPEDTAVYYCAADERRRHYWWGQESDYWGQGTQVNVSS”, the “polyreactivity (PSR sort gate)” value was “low polyreactivity”.
With “QVQLVESGGGLVQAGGSLRLSCAASGYIFVIYAMGWYRQAPGKERELVAAISWGGGSTYYADSVKGRFTISRDNAKNTVYLQMNSLKPEATAVYYCAARGWVVGRISVPGEYWGQGTQVTVSS” the “polyreactivity (PSR sort gate)” value was “high polyreactivity”.
For “QVQLVESGGGLVQAGGSLRLSCAASGRIFGDYAMGWYRQAPGKERELVADITWSGGSTYYADSVKGRFTISRDNAKNTVYLQMNSLKPEDTAVYYCNADYDGGYYGDLSLYDYWGQGSQVTVSS”, the “polyreactivity (PSR sort gate)” value was “low polyreactivity”.
In the case of “QVQLVESGGGLVQAGGSLRLSCAASGSTFRINAMGWYRLAPGKEREFVAAIRWNGGSTNYADSVKGRFTISRDNAKNTVYVQMNSLKPEDTAVYYCAADGYIGWRHIYEYWGQGTQVTVSS”, the “polyreactivity (PSR sort gate)” value is reported as “low polyreactivity”.
In the case of “QVQLVESGGGLVQARGSLRLSCAATGFTIWQNAMGWYRQPQGKERELVAGIRLSGGSTYADSVKGRFTIARDNAKNTVYLQMNSLKPEDTAVYYCAARIAGNYRYRSLRYDYWGQGTQVTVSS”, the “polyreactivity (PSR sort gate)” value is reported as “high polyreactivity”.
In the case of “QVQLVESGGGLDQAGGSHRLSCAASGSTFPYPNTMGWYRQAPGKERELVAVISRTGGSTFYADSVKWRFTISRDNAKNTVYFQMNSLKPEDTAVYYCAARRDGWTFWKYDYWGHGTQVTVSS”, the “polyreactivity (PSR sort gate)” value is reported as “high polyreactivity”.
For “QVQLVESGGGLVQAGGSLRLSCAASGRTFRYYAMGWYRQAPGKERELVATISSGGSTNYADSVKGRFTISRDNAKNTVYLQMNSLKPEDTAVYYCARYSYRGTNVRYDYWGQGTQVTVSS”, the “polyreactivity (PSR sort gate)” value was “high polyreactivity”.
With “QVQLVESGGGLVQARGSLRLSCAASGRTFTYNAMAWYRQAPGKERELVAAINSGGSTNYADSVKGRFTISRDNAKNTVYLQMNSLKPEDTAVYYCNAGFGFGSSRYGTRYYYWGQGSQVTVSS” the “polyreactivity (PSR sort gate)” value was “low polyreactivity”.
With “QVQLVESGGGLVQAGGSLRLSCAASGSTFSANAMGWYRQAPGKERELVAAITYRGGNTYYADSVKGRFTISRDNAKNTVYLQMNSLKPEETAVYYCNRDLRVRYRRLKYGYWGQGTQVTVSS” the “polyreactivity (PSR sort gate)” value was “low polyreactivity”.
In the case of “QVQLVESGGGLVQAGGSLRLSCAASGRTFQFYTMGWYRQAPGKERELVAVITVSSASTFYADSVKGRFTISRDNAKNTVYLQMNSLKPEDTAVYYCAAGLVLNVGMDSWGQGTQVTVSS”, the “polyreactivity (PSR sort gate)” value is reported as “low polyreactivity”.
For “QVQLVESVGGLVQAGGSLRLSCAASGRTFRYNAMGWYRQAPGKERELVASITSGGSTNYADSVKGRFTISRDNAKNTVYLQMNSLKPEDTAVYYCAAEAYFWQYERDYWGQGTQVTLSS”, the “polyreactivity (PSR sort gate)” value was “low polyreactivity”.
With “QVQLVESGGGLVQAGGSLRLSCAASGSTFHYYVMRWYRQAPGKERELVAAIRRSGGTTYYADSVKGRFTISRDNAKNTVYLQMNSLKPEDTAVYYCAAPGWYGGYPSYYYWGQGTQVSVSS” the “polyreactivity (PSR sort gate)” value was “low polyreactivity”.
With “QVQLVESGGGLVQAGGSLRLSCAASGINFRQYTMGWFRQAPGKERELVAAITSSGRTYYADSVKGRFTISRDNAKNTVYLQMNSLKPEDTAVYYCAAKGTYRGHDYWGQGTQVTVSS” the “polyreactivity (PSR sort gate)” value was “high polyreactivity”.
With “QVQLVESGGGLVQAGGSLRLSCAASGRIFYINTMGWYRQAPGKERELVAAISRRGGSTYYADSVKGRFTISRDNAKNTVYLQMNSLKPEDTAVYYCAARDQYGPGYRSESLDSWGQGTQVTVSS” the “polyreactivity (PSR sort gate)” value was “low polyreactivity”.
In the case of “QVQLVESGGGLVQAGGSLRLSCAASGSIFRFYAMGWYRQAPWKERELVAGITWSGASTYYADSVKGRFTISRDNAKNTVYLQMNSLKPEDNAVYYCAAKSLIVRYDSWGQGTQVTVSS”, the “polyreactivity (PSR sort gate)” value is reported as “high polyreactivity”.
For “QVQLVESGGGLVQAGGSLRLSCAASGSIFEGYVMGWYRQAPGKERELVATISFSGGSTYYADSVKGRFTISRDNAKNTVYLQMTSLKPEDTAVYFCNALVYHTKGDYGYWGQGTQVTVSS”, the “polyreactivity (PSR sort gate)” value was “low polyreactivity”.
With “QVHLVESGGGLVQAGGSLRLSCAASGSTFYNNAMGWYRQAPGKERELVAAINYSGGSTNYADSVKGRFTISRDNAKNTVYLQMNILKPEDTAVYYCATDLHWLVTKYGYWGQGTQVTVSS” the “polyreactivity (PSR sort gate)” value was “low polyreactivity”.
For “QVQIVDSGGGLVQAGGSLRLSCAASGRTFNYYAKGWYRQAPGKERQLVAAISKSGGSTYYADSVKGRFTISRDNEKNTVYLQMNSLKPEETAVYYCAALTTHAPHSYNYWGQGTQVTVSS”, the “polyreactivity (PSR sort gate)” value was “low polyreactivity”.
With “QVQLVESGGGLVQAGGSLRLSCAASGFIFRYYAMGWYRPAPGKERELVAAISASGGSTYYADSVKGRCTISRDNAKNSDYLLMNSLKPEDTAVYYCATYYQKYRSEYWGQGTQVTVSS” the “polyreactivity (PSR sort gate)” value was “high polyreactivity”.
For “QVQLVESGGGLVQAGGSLRLSCAASGRTFRENAMGWYRPAPGKERELVAAISWRAGSTYYADSVKGRFTISRDNAKNTVYLQMNSLKPEDTAVYYCAAKYTVSFYLWGTFNYWGQGTQVTVSS”, the “polyreactivity (PSR sort gate)” value was “high polyreactivity”.
With “QVQLVESGGGLVQAGGSLRLSCAASGSIFDFYAMGWYRQAPGKERELVAAITWSGDTTYYADSVKGRFTISRDNAKNTVYLQMNSLKPEDTAVYYCAAEGWYWWYGRDYYWGQGTQVTVSS” the “polyreactivity (PSR sort gate)” value was “high polyreactivity”.
With “QVQLVESGGGLVQAGGSLRLSCAASGIIFLLYAMGWYRQAPGKERELVAAITNGGRTNYADSVKGRFTISRDNAKNTVYLQMNSLKPEDTAVYYCNAVLSVPDYTLFDYWGQGTQVTVSS” the “polyreactivity (PSR sort gate)” value was “low polyreactivity”.
For “QVQLVESGGGLVQAGGSLRLSCAASGRTFWTNAMGWYRQAPGKERELVAAIDRSSTSTYYADSVKGRFTISRDNAKNTVYLQMNSLKPEDTAVYYCAAENPVIVETPYGGFVGKGDSWGQGTQVTVSS”, the “polyreactivity (PSR sort gate)” value was “low polyreactivity”.
With “QVQLVESGGGLVQAGGSLRLSCAASGSTFAYYAMGWYRQAPGKEREMVAAISSGGSTYYADSVKGRFTISRDNAKNTVYLQMNSLKPEDTAVYYCNAEVPGHYFDGWYFYDFDYWGQGTQVTVSS” the “polyreactivity (PSR sort gate)” value was “low polyreactivity”.
For “QVQLVESGGGLVQAGGSLRLSSAASGRIFTIYAMGWYRQAPGKERELVATISRRGGSTYYADSVKGRFTISRDNAKNTVYLQMNSLKPEDTAGYYCAADSVITWWAYDYWGQGTQVTVSS”, the “polyreactivity (PSR sort gate)” value was “high polyreactivity”.
With “QVQLVESGGGLVQAGGSLRLSCAASGRIFAAYAMGWYRQAPGKERELVAGISRGGRTYYADSVKGRFTISRDNAKNTVYLQMNSLKPEDTAVYYCNKAPSWWDVRVPFDYWGQGTQVTVSS” the “polyreactivity (PSR sort gate)” value was “low polyreactivity”.
With “QVQLVESGGGLVQAGGSLRLSCAASGRIFNVYAMGWYRQAPGKERELVASITSAGSTYYADSVKGRFTISRDNAKITVYLQMNSLKPEDTAVYYCAADSYSVYYYTYDSWGQGTQVTVSS” the “polyreactivity (PSR sort gate)” value was “low polyreactivity”.
With “QVQLVESGGGLVQAGGSLRLSCAASGFTFGRYAMGWYRQAPGKERELVAAISRGGSTYYADSVKGRFTISRDNAKNTVYLQMNSLKPEDTAVYYCNKGDSKEYDVYYWGQGTQVTVSS” the “polyreactivity (PSR sort gate)” value was “low polyreactivity”.
In the case of “QVQLVESGGGLVQAGGSLRLSCAASGRIFYPYAMGWYRQAPGKERELVAAIRGGDSTNYADSVKGRFTISRDNAKNTVYLQMNSLKPEDTAVYYCAAVLRYVVRPYSYWSGGYDYWGQGTQVTVSS”, the “polyreactivity (PSR sort gate)” value is reported as “high polyreactivity”.
For “QVQLRESGGGLVQAGGSLLSCAASATISYYREMGWYRQAPGNERELVAGIGVGTITYYADSVKGRFTISRDNAKNTVYLQMNSLKPEDTAVYYCAAHIEGNDSHAYWGQGTQVTVSS”, the “polyreactivity (PSR sort gate)” value was “low polyreactivity”.
